Results published in patent publication US20080200416A1.

How the values were obtained:
[1] = molecular target: agonist MCC I-E^k complex (mouse) (UniProt G3UW40); assay: cell-based or functional assay
[2] = molecular target: antagonist MCC 99R I-E^k complex (mouse) (UniProt P04224); assay: cell-based or functional assay
Sequence of antagonist MCC 99R I-E^k complex (mouse) (P04224 26-216, one chain of several): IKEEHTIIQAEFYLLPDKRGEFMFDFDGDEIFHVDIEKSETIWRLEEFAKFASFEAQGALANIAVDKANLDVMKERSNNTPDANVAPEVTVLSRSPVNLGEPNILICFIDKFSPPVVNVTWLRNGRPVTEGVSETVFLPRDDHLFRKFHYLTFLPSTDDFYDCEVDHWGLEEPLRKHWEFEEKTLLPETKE

Work on 5C.C7 TCR yielded a half-maximal calcium response (EC50), control T cell blasts [1] of 5 peptides, a half-maximal calcium response (EC50), miR-181a T cell blasts [1] of 2 peptides and a peak cytosolic calcium response, miR-181a T cell blasts [2] of over 2 fold.
